Source: the supplement of paper PMC10567573

B1: CDC14A (parent)
chain: GPHPKSKIENGYPLHAPEAYFPYF

Variants of: B1
Assay: protein stability index of a GFP-peptide fusion (GPS, HEK-293T) (PSI 1-6); higher = more stable
Settings: c terminus: a fixed tail appended
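Also: lentivirally expressed fusions sorted by FACS into six bins by GFP to DsRed ratio, PSI derived from sequencing read proportions per bin multiplied by bin number.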

Point of comparison: GPHPKSKIENGYPLHAPEAYFPYT [F24T], protein stability index 3.41. Against it:
- GPHPKSKIENGYPLHAPEANFPYF [Y20N] — lower, 2.63
- GPHPKSKIENGYPLHAPEAMFPYF [Y20M] — lower, 2.71
- GPHPKSKIENGYPLHAPEASFPYF [Y20S] — lower, 2.55
- GPHPKSKIENGYPLHAPEAEFPYF [Y20E] — lower, 2.76
- GPHPKSKIENGYPLHAPEAQFPYF [Y20Q] — lower, 2.55
- GPHPKSKIENGYPLHAPEAVFPYF [Y20V] — lower, 2.55
- GPHPKSKIENGYPLHAPEALFPYF [Y20L] — lower, 3.1
- GPHPKSKIENGYPLHAPEACFPYF [Y20C] — lower, 2.19
- GPHPKSKIENGYPLHAPEADFPYF [Y20D] — lower, 3.29
- GPHPKSKIENGYPLHAPEAHFPYF [Y20H] — lower, 2.71
- GPHPKSKIENGYPLHAPEAKFPYF [Y20K] — lower, 2.79
- GPHPKSKIENGYPLHAPEARFPYF [Y20R] — lower, 2.44
- GPHPKSKIENGYPLHAPEAIFPYF [Y20I] — lower, 2.57
- GPHPKSKIENGYPLHAPEAWFPYF [Y20W] — lower, 2.19
- GPHPKSKIENGYPLHAPEAFFPYF [Y20F] — lower, 1.89
- GPHPKSKIENGYPLHAPEATFPYF [Y20T] — lower, 2.84
- GPHPKSKIENGYPLHAPEAGFPYF [Y20G] — lower, 3.25
- GPHPKSKIENGYPLHAPEAAFPYF [Y20A] — lower, 2.76
- GPHPKSKIENGYPLHAPEAYSPYF [F21S] — lower, 2.96
- GPHPKSKIENGYPLHAPEAYRPYF [F21R] — lower, 2.94
- GPHPKSKIENGYPLHAPEAYVPYF [F21V] — lower, 2.9
- GPHPKSKIENGYPLHAPEAYAPYF [F21A] — lower, 3
- GPHPKSKIENGYPLHAPEAYIPYF [F21I] — lower, 2.17
- GPHPKSKIENGYPLHAPEAYQPYF [F21Q] — lower, 2.85
- GPHPKSKIENGYPLHAPEAYNPYF [F21N] — lower, 2.91
- GPHPKSKIENGYPLHAPEAYGPYF [F21G] — lower, 2.8
- GPHPKSKIENGYPLHAPEAYLPYF [F21L] — lower, 2.17
- GPHPKSKIENGYPLHAPEAYWPYF [F21W] — lower, 2.71
- GPHPKSKIENGYPLHAPEAYDPYF [F21D] — higher, 3.55
- GPHPKSKIENGYPLHAPEAYYPYF [F21Y] — lower, 2.44
- GPHPKSKIENGYPLHAPEAYMPYF [F21M] — lower, 2.69
- GPHPKSKIENGYPLHAPEAYKPYF [F21K] — lower, 3.05
- GPHPKSKIENGYPLHAPEAYCPYF [F21C] — lower, 2.92
- GPHPKSKIENGYPLHAPEAYHPYF [F21H] — lower, 2.47
- GPHPKSKIENGYPLHAPEDYFPYF [A19D] — lower, 2.2
- GPHPKSKIENGYPLHAPECYFPYF [A19C] — lower, 1.8
- GPHPKSKIENGYPLHAPEIYFPYF [A19I] — lower, 2.38
- GPHPKSKIENGYPLHAPEHYFPYF [A19H] — lower, 2.22
- GPHPKSKIENGYPLHAPESYFPYF [A19S] — lower, 2.35
- GPHPKSKIENGYPLHAPEEYFPYF [A19E] — lower, 2.36
- GPHPKSKIENGYPLHAPELYFPYF [A19L] — lower, 1.98
- GPHPKSKIENGYPLHAPEQYFPYF [A19Q] — lower, 2.48
- GPHPKSKIENGYPLHAPERYFPYF [A19R] — lower, 1.78
- GPHPKSKIENGYPLHAPEKYFPYF [A19K] — lower, 2.51
- GPHPKSKIENGYPLHAPEMYFPYF [A19M] — lower, 2.97
- GPHPKSKIENGYPLHAPEPYFPYF [A19P] — lower, 2.41
- GPHPKSKIENGYPLHAPEGYFPYF [A19G] — lower, 2.22
- GPHPKSKIENGYPLHAPEVYFPYF [A19V] — lower, 1.89
- GPHPKSKIENGYPLHAPEFYFPYF [A19F] — lower, 2.39
- GPHPKSKIENGYPLHAPEWYFPYF [A19W] — lower, 1.87
- GPHPKSKIENGYPLHAPENYFPYF [A19N] — lower, 2.71
- GPHPKSKIENGYPLHAPETYFPYF [A19T] — lower, 2.39
- GPHPKSKIENGYPLHAPEYYFPYF [A19Y] — lower, 2.35
- GPHPKSKIENGYPLHAPHAYFPYF [E18H] — lower, 2.24
- GPHPKSKIENGYPLHAPVAYFPYF [E18V] — lower, 1.57
- GPHPKSKIENGYPLHAPYAYFPYF [E18Y] — lower, 2.22
- GPHPKSKIENGYPLHAPFAYFPYF [E18F] — lower, 1.92
- GPHPKSKIENGYPLHAPGAYFPYF [E18G] — lower, 2.3
- GPHPKSKIENGYPLHAPTAYFPYF [E18T] — lower, 2.01
- GPHPKSKIENGYPLHAPWAYFPYF [E18W] — lower, 1.56
- GPHPKSKIENGYPLHAPNAYFPYF [E18N] — lower, 2.01
- GPHPKSKIENGYPLHAPQAYFPYF [E18Q] — lower, 2.31
- GPHPKSKIENGYPLHAPKAYFPYF [E18K] — lower, 2.23
- GPHPKSKIENGYPLHAPSAYFPYF [E18S] — lower, 2.28
- GPHPKSKIENGYPLHAPRAYFPYF [E18R] — lower, 2.69
- GPHPKSKIENGYPLHAPAAYFPYF [E18A] — lower, 2.61
- GPHPKSKIENGYPLHAPIAYFPYF [E18I] — lower, 1.95
- GPHPKSKIENGYPLHAPLAYFPYF [E18L] — lower, 2.03
- GPHPKSKIENGYPLHAPCAYFPYF [E18C] — lower, 1.65
- GPHPKSKIENGYPLHAPMAYFPYF [E18M] — lower, 1.45
- GPHPKSKIENGYPLHAPDAYFPYF [E18D] — lower, 2.62
- GPHPKSKIENGYPLHAVEAYFPYF [P17V] — lower, 1.92
- GPHPKSKIENGYPLHAYEAYFPYF [P17Y] — lower, 1.79
- GPHPKSKIENGYPLHAWEAYFPYF [P17W] — lower, 2.04
- GPHPKSKIENGYPLHATEAYFPYF [P17T] — lower, 3.15
- GPHPKSKIENGYPLHAPEAYFPYA [F24A] — higher, 3.43
- GPHPKSKIENGYPLHAPEAYFPYE [F24E] — higher, 3.61
- GPHPKSKIENGYPLHAPEAYFPYQ [F24Q] — lower, 2.6
- GPHPKSKIENGYPLHAPEAYFPYK [F24K] — lower, 3.4
- GPHPKSKIENGYPLHAPEAYFPYC [F24C] — lower, 2.66
- GPHPKSKIENGYPLHAPEAYFPYD [F24D] — lower, 3.37
- GPHPKSKIENGYPLHAPEAYFPYS [F24S] — lower, 2.38
- GPHPKSKIENGYPLHAPEAYFPYV [F24V] — lower, 2.75
- GPHPKSKIENGYPLHAPEAYFPYR [F24R] — lower, 2.44
- GPHPKSKIENGYPLHAPEAYFPYP [F24P] — lower, 3.08
- GPHPKSKIENGYPLHAPEAYFPYN [F24N] — lower, 2.62
- GPHPKSKIENGYPLHAPEAYFPYW [F24W] — lower, 1.89
- GPHPKSKIENGYPLHAPEAYFPYH [F24H] — lower, 3.12
- GPHPKSKIENGYPLHAPEAYFPYY [F24Y] — lower, 2.6
- GPHPKSKIENGYPLHAPEAYFPYG [F24G] — lower, 3.09
- GPHPKSKIENGYPLHAPEAYFPYM [F24M] — lower, 2.23
- GPHPKSKIENGYPLHAPEAYFPYI [F24I] — lower, 2.92
- GPHPKSKIENGYPLHAPEAYFPYL [F24L] — lower, 2.51
